Our source for the Kd and IC50 values is the Immune Epitope Database (IEDB).

Where only a bound is given, the exact number is not on record here.

The target in one experiment is HLA-A*02:03. The experiment can be described thus: IEDB peptide-MHC binding, purified MHC/competitive/fluorescence; filed as Kd, often an IC50 or EC50 that approximates it; ≥ and ≤ were set here for values at or beyond the usual limits of such assays.
For experiment [1], the target named is HLA-A*02:11. Described as above.
Another experiment concerns the target HLA-A*02:06. The description is as above.
In experiment [2] the target is HLA-A*02:12. Described as above.
The target of another experiment is HLA-B*58:01. The experiment can be described thus: IEDB peptide-MHC binding, purified MHC/direct/fluorescence; filed as Kd, often an IC50 or EC50 that approximates it; ≥ and ≤ were set here for values at or beyond the usual limits of such assays.
Experiment [3] addresses HLA-A*69:01. The description is as above.
Experiment [4] concerns the target HLA-A*02:01. The experiment is described as above.
The target in experiment [5] is HLA-B*15:01. The experiment is described as above. To be noted: source organism: Haemophilus influenzae.
For experiment [6], the target named is HLA-B*27:05. Nature of the experiment: IEDB peptide-MHC binding, purified MHC/competitive/fluorescence; filed as Kd, often an IC50 or EC50 that approximates it; ≥ and ≤ were set here for values at or beyond the usual limits of such assays.
The target in another experiment is HLA-A*24:02. The experiment can be described thus: IEDB peptide-MHC binding, purified MHC/competitive/fluorescence; ≥ and ≤ were set here for values at or beyond the usual limits of such assays.
For a further experiment, the target named is HLA-B*08:01. The description is as above.
The target of experiment [7] is HLA-B*15:01. The description is as above. Conditions: source organism: Vaccinia virus.
Experiment [8] concerns the target HLA-A*01:01. The experiment can be described thus: IEDB peptide-MHC binding, purified MHC/competitive/fluorescence; filed as Kd, often an IC50 or EC50 that approximates it; ≥ and ≤ were set here for values at or beyond the usual limits of such assays. To be noted: source organism: Human immunodeficiency virus 1.
The target in experiment [9] is HLA-A*11:01. Described as above. To be noted: source organism: Human immunodeficiency virus 1.
The next experiment concerns the target HLA-A*26:02. The experiment is described as above. To be noted: source organism: Human immunodeficiency virus 1.
Another experiment has as its target HLA-B*15:17. The description is as above.
The target of experiment [10] is HLA-B*15:01. The experiment is described as above.
Another experiment addresses HLA-B*18:01. The description is as above. To be noted: source organism: Human immunodeficiency virus 1.
A further experiment addresses HLA-A*30:01. The description is as above.
A further experiment deals with HLA-A*02:19. The experiment is described as above. To be noted: source organism: Human immunodeficiency virus 1.
In experiment [11] the target is HLA-A*69:01. The experiment is described as above. To be noted: source organism: Human immunodeficiency virus 1.
The target of experiment [12] is HLA-A*02:01. The description is as above. Conditions: source organism: Human immunodeficiency virus 1.
For the next experiment, the target named is HLA-A*02:16. The experiment is described as above. Conditions: source organism: Human immunodeficiency virus 1.
Experiment [13] concerns the target HLA-A*03:01. The description is as above. To be noted: source organism: Vaccinia virus WR.
For another experiment, the target named is HLA-B*35:01. The description is as above. To be noted: source organism: Vaccinia virus WR.
Another experiment has as its target HLA-B*57:01. The experiment is described as above. To be noted: source organism: Vaccinia virus WR.
A further experiment addresses HLA-A*32:01. Nature of the experiment: IEDB peptide-MHC binding, purified MHC/competitive/radioactivity; filed as Kd, often an IC50 or EC50 that approximates it; ≥ and ≤ were set here for values at or beyond the usual limits of such assays. To be noted: source organism: Vaccinia virus WR.
Experiment [14] deals with HLA-A*01:01. Nature of the experiment: IEDB peptide-MHC binding, purified MHC/direct/fluorescence; filed as Kd, often an IC50 or EC50 that approximates it; ≥ and ≤ were set here for values at or beyond the usual limits of such assays. To be noted: source organism: Camelpox virus M-96.
Another experiment deals with HLA-B*48:01. The experiment is described as above. Conditions: source organism: Camelpox virus M-96.
The target in a further experiment is HLA-B*08:02. The experiment is described as above. To be noted: source organism: Variola virus.
Experiment [15] concerns the target HLA-A*11:01. The experiment is described as above. Conditions: source organism: Variola virus.
The target of another experiment is HLA-B*40:01. Described as above. To be noted: source organism: Camelpox virus M-96.
Experiment [16] concerns the target HLA-B*27:05. The experiment is described as above. Conditions: source organism: Camelpox virus M-96.
The target in a further experiment is HLA-A*31:01. Described as above. To be noted: source organism: Camelpox virus M-96.
The target in the next experiment is HLA-A*26:01. Described as above. To be noted: source organism: Camelpox virus M-96.
In experiment [17] the target is HLA-A*02:11. The description is as above. To be noted: source organism: Orthohantavirus hantanense.
In experiment [18] the target is HLA-A*02:12. The description is as above. To be noted: source organism: Orthohantavirus hantanense.
The target in experiment [19] is HLA-A*11:01. Nature of the experiment: IEDB peptide-MHC binding, purified MHC/competitive/fluorescence; ≥ and ≤ were set here for values at or beyond the usual limits of such assays. To be noted: source organism: Vaccinia virus Copenhagen.
The target of experiment [20] is HLA-A*03:01. Described as above. Conditions: source organism: Vaccinia virus Copenhagen.
[21] abbreviates: source organism: Haemophilus influenzae 3655.
[22] abbreviates: source organism: Haemophilus influenzae.
Where [23] appears, read: source organism: Vaccinia virus.
The mark [24] stands for this setting: source organism: Human immunodeficiency virus 1.
[25] abbreviates: source organism: Vaccinia virus WR.
Where [26] appears, read: source organism: Camelpox virus M-96.
[27] abbreviates: source organism: Vaccinia virus Copenhagen.

On to LMTAISQGI, for which the Kd is not above 0.1 nM with HLA-A*02:03 (setting [21]); not above 0.1 nM with HLA-A*02:11 [1] (setting [21]); not above 0.1 nM in the experiment with HLA-A*02:06 (setting [21]); 1.15 nM with HLA-A*02:12 [2] (setting [21]); 367 nM with HLA-B*58:01 (setting [22]); 1720 nM with HLA-A*69:01 [3] (setting [22]). Besides, the Kd is 29.5 nM with HLA-A*02:01 [4] (setting [22]) and 2000 nM in the experiment with HLA-B*15:01 [5].
For the sequence GRAGVVPRY, the Kd in the experiment with HLA-B*27:05 [6] (source organism: Mycobacterium tuberculosis variant bovis BCG str. Pasteur 1173P2) was 230 nM.
With YSKDSRNKL, the IC50 was 19700 nM with HLA-A*24:02 (setting [23]), not below 77100 nM in the experiment with HLA-B*08:01 (setting [23]) and not below 255000 nM in the experiment with HLA-B*15:01 [7].
On to RSLFNTIAVLY, for which the Kd in the experiment with HLA-A*01:01 [8] was not below 20000 nM; with HLA-A*02:03 (setting [24]), 356 nM; with HLA-A*11:01 [9] it was not below 20000 nM; in the experiment with HLA-A*26:02, 1350 nM; in the experiment with HLA-A*02:06 (setting [24]), 676 nM; with HLA-B*15:17 (setting [24]), 92.3 nM. Besides, the Kd in the experiment with HLA-B*15:01 [10] (setting [24]) was 3660 nM; in the experiment with HLA-B*18:01 it was 1490 nM; with HLA-A*30:01 (setting [24]), not below 20000 nM.
On to YRIWLEQNK, for which the Kd with HLA-B*27:05 [6] (source organism: Mycobacterium tuberculosis C) came out at 82.5 nM.
Take GLGQHIYET: the Kd in the experiment with HLA-A*02:03 (setting [24]) is 41 nM; with HLA-A*02:19, 771 nM; with HLA-A*69:01 [11] it was not below 20000 nM; in the experiment with HLA-A*02:01 [12], 3680 nM; in the experiment with HLA-A*02:11 [1] (setting [24]), 9.55 nM; with HLA-A*02:06 (setting [24]) it was 119 nM. Further, the Kd with HLA-A*02:16 was found to be 2.03 nM; with HLA-A*02:12 [2] (setting [24]), 75.5 nM.
ITMVNSLTY: the Kd with HLA-B*15:17 (setting [25]) is 4.1 nM; with HLA-A*03:01 [13] it was 39 nM; with HLA-B*35:01 it was 290 nM; with HLA-B*15:01 [10] (setting [25]), 228 nM; in the experiment with HLA-B*57:01, 257 nM; in the experiment with HLA-A*30:01 (setting [25]) it was not below 20000 nM. For the same sequence, the Kd with HLA-A*32:01 was 95.7 nM; with HLA-A*01:01 [14] it was 37.1 nM; in the experiment with HLA-B*48:01, not below 20000 nM; with HLA-B*58:01 (source organism: Variola virus) it was 13 nM; with HLA-A*69:01 [3] (setting [26]), not below 20000 nM; with HLA-B*08:02, not below 20000 nM. Also, the Kd with HLA-A*02:01 [4] (setting [26]) is not below 20000 nM; with HLA-A*11:01 [15], 12 nM; with HLA-B*40:01, not below 20000 nM; in the experiment with HLA-B*27:05 [16], not below 20000 nM; with HLA-A*31:01, not below 20000 nM; in the experiment with HLA-A*26:01, 258 nM.
Regarding WLIEPCKLL, the Kd was 24.3 nM with HLA-A*02:01 [4] (source organism: Orthohantavirus hantanense), 5 nM with HLA-A*02:11 [17] and 139 nM with HLA-A*02:12 [18].
DIKASNIVL: the IC50 with HLA-B*08:01 (setting [25]) was not below 266000 nM.
With KRYLQAKSE, in the experiment with HLA-B*27:05 [6] (source organism: Escherichia coli 536), the Kd came to 114 nM.
Take NRYGLPEKM: in the experiment with HLA-B*27:05 [6] (source organism: Bacillus anthracis str. A0488), the Kd was 17.5 nM.
The sequence TRVLKPSVI displayed an IC50 with HLA-B*08:01 (setting [25]) not below 187000 nM.
In the case of ITFALKKLI, the IC50 with HLA-A*24:02 (setting [27]) was 2300 nM; in the experiment with HLA-B*08:01 (setting [27]), not below 210000 nM; in the experiment with HLA-A*11:01 [19] it was 57700 nM; in the experiment with HLA-A*03:01 [20], 60800 nM.
